Data on one molecule can be found in patent publication US6284456, “Transcriptional coactivator that interacts with Tat protein and regulates its binding to TAR RNA, methods for modulating Tat transactivation, and uses therefor” (The Salk Institute for Biological Studies, dated 2001).

The target in the assay is cyclin T1 (native 87 kDa protein of HeLa nuclear extract) (human). Nature of the assay: GST-Tat bead pull-down from HeLa nuclear extract, SDS-PAGE, silver stain.
cyclin T1 (native 87 kDa protein of HeLa nuclear extract) (human), sequence (chain, as listed by the source limits assumed): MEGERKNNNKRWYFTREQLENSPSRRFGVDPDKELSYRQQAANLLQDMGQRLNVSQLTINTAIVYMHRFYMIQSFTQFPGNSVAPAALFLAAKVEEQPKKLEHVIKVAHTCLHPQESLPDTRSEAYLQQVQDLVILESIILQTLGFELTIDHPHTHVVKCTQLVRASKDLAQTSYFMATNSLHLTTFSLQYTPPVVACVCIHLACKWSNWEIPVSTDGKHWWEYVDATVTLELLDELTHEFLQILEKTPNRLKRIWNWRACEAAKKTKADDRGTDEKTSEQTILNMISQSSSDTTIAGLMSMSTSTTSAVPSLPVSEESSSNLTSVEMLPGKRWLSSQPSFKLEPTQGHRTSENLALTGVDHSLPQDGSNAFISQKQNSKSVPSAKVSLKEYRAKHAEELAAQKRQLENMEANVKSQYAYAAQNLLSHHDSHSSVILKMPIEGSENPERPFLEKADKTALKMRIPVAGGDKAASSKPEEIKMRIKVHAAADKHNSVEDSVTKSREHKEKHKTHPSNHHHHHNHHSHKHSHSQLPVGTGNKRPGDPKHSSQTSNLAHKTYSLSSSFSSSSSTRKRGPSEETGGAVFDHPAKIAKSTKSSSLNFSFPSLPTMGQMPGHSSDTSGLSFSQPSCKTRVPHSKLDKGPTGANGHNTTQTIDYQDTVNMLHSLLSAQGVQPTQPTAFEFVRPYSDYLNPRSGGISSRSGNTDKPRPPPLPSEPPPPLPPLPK

Turning to MEPVDPRLEPWKHPGSQPKTACTNCYCKKCCFHCQVCFITAALGISYG (other) [GST-Tat-1 K41A (aa 1-48)], the binding result is reported as “no binding”.
